Assay: soluble on expression in E. coli; label from the status in PepcDB or PDB records

Soluble on expression in E. coli, not soluble:
MGSDKIHHHHHHMLNRLRAFRERGWREVDAPTYAQAWQRFGGSVATHPLVVEQLAEMAGIPVRYLGWESAGELVAAIPTWGRHLALSKDVLKRRGKKGLYDLGNAELILPVAGDARIALRHAGRYLSALHERNIVTLRPQTEQLAFARAPEDFSKKFRYNQRREVRLVEEAGGQVRQADSFAPAEFAAIYLELFQRRWGFPATGAERMAEVFERLRELLRGSVLLLNDQPIAVQVLYRAEAPGWLSVEYINGGVDPQTREFSPGSVLSYLNTQAAWEDARALGKPLRYSFGRADREYKDRWCHPSPVFQV
MGSDKIHHHHHHMLPTLDGLPFHIAKAQGIYDSLGLDLTILSFNSAYDRDAAFQFKSMDGMITDYPSAVTLQAIHHTDLGIILKHDGYFCFIVSKESGINQLQELKEKNIAVSHNTIIEYATGQLLNKAGISQAEVNKPEIAQLPLRLQMLQYDQIDASFLPDPAASIAMNARHRSLISTQELGIDFTVTAFSREAINEKRREIELLITGYNLGIDYIKMHPQKEWKQVLIEIGVPENLTGLIALPVYRKAERPSADALDKAVTWLKTNNRIPQTYSGYKSLIDTTFIKTNSTTIK
MGSDKIHHHHHHMLQMIPARPSRALASLSEAYEECRQITARYAKTFYLGTLLMPEAKRQAIWAIYVWCRRTDELVDGPQAAQTNFATLDAWERRLERLFAGEPEDDCDVALVDTLARYPLDIQPFRDMIEGQRMDLLQNRYSTFEDLYTYCYRVAGTVGLMSQPVMGIESTNSRAPWDPTTPPDPTQEALALGIANQLTNILRDVGEDARRGRIYLPQEELAQFNYSEQDLFNGVIDDRWRAFMQFQLDRARDYFEQAERGIRQLSHDARWPVWASLMLYREILDVIEQNNYDVFRKRAYVPTWRKLCSLPVAMLRATVL
MGSDKIHHHHHHMLQNGYVPCSFRISMAGMDVEFNTKNDVIKAYLSRPDDGMRHPGIVVIHEIFGLDDHIRSVADRISREGYVALAPDLFSSHELSAKITREGILESMKFIMSIPPEKQRDDSYRNSLLNSMPEEKRRIMSSTYSALFVNRPTQLLTEYLEYAVDYLKGIGVTSVGSVGFCFGGGMSANLGCTGKVDATVIFYGENPDPIDKVKGMKSVLGLYAGEDHRITSRVPELLAKLIEFSIPVTIKVYPGAYHAFFNDTRPQIYNEAAAKDAWNMMLYFFRTQLGP
MGSDKIHHHHHHMLRVWVGSKPVGVLDRSGRRGSTFVYDVKADDRDAVSLTMPKRTESWNSEFGLLPIFDMNLPEGALEGKIRTAFAKALGHFDDLDLLAVVGRSQIGRIRFTGMDEELVEDVPFRSIDDLLRARRAGDLYNDLLETYAVHSGVAGVQPKVLVRAREDDPSDGRQSLSVRGATHIVKMWDPDEYPELAANEFFCLMAAQQVGLEVPDFRLSEDGLALVVERFDLTDGSYSGYEDFCALNGVTSKDKYNGGYETKLFKRIKEFVSPENAVGSLEVAFRLFVINCGIRNGDAHLKNFGVVYKDAESPVRLAPVYDLITTRAYIKNDAMALTLDGSTAWPDRKKLDRLGVTRANLRPGRVAEIVEQTCDALSDVSGRVKAYFEESSFPEVGEKMLREWQAGVGSLSEGKTIHLMEALDATSARND
MGSDKIHHHHHHMLSHRLQDTSLRYFLEVVRTGSLTEAAQRLNVTVSAVSRQVAALESWLGVPLFDRRPRGMVASAAGELLAAYALRNALEADRVVTEIDALQGLRRGRVRVASSAGFAIEFLPRAIADFRERYPGLHFHVRVAPPAEVTGIVLHGDADIGITYSRAAEQGIRVEHRQAAPVIAIMRPDHALARFRSITLSQMLPYPLALPEGDNTVRQLFDIACGERGVAFEPVLVSNQFETLTSFVLHGGGLSISGGVTVGDRLRRGELHAATIRERGMKSRAIELQTLAGRTLPEGVRTFLGFVRDRLVEEAGIGS
MGSDKIHHHHHHMLSIERQCQCMQLLIETFTVPIEIRALKTANIYRLETDDSAFLIDSGMSDNSIKSIEQNLKKIDFVFITHLHIDHLGGVLYLHEKYGIPAYMNHLDLDLIMNANEDRDGYIKRHSEIFRVNGVPPSMVEEIITMHPVIRYFDYYSKLDFVQDYRKINASGIKFVEVPGHSPGSTAVYIEDSRDLFAGDHILDRITPNIAVYGDEDDLGNYLESLEKVRAMKVDRIFPGHGNVITEPKIRIDDIEKHHHDRMRAIIAALKSPKTAYEVARDITWSKGRKMDTMNFMERNFAILETVSHLKHMDRKGMVRRIEENGIIKYSYIQ
MGSDKIHHHHHHMLSLKSEVLARHLPLFNGKSILLFGNVRDRFADQIRSISSHVAIFSHYFDYARHYNDVEFGLDCTTPANLGVFYWTKNKQECHYQLLQWLSQTAIGQQMLIIGENRAGVRSVEKLLSPFGQIAKIDSARRCGLYHFELQTIPQFDCQKFWKSYRLADLTVLSLPAAFSSTELDAGSQLLLSSFTNQDRLTGNVLDLGCGAGVIGAYLKQRFPAISLTMSDIHSMAIHSAQATLAKNKLTGTVIASDVFSHINDRFDLIVSNPPFHDDIDTAYHTVESLIMQAKNHLNYGGELRIVANAFLPYPDLLDKAFGSHQVVTKSNKFKVYSARV
MGSDKIHHHHHHMLSNLVSEFPQHEPRPANAPRALEGIRVVDFTHFIAGPFATMMLADMGAEVIKIEAPGRGDEFRYYPPAHPQDESIGAPYLWANRNKRSIALDLKHEDGRRIARELIATADVVAENFSTGVMERLGLGYEACRESNPELIYCSVSAYGREGAFADRLGFDPVAQAESGFVSMNGYPDRLGVRALSPVMDISTAMMASNAILGALVARERSGKGQAVEVSLFDNAVLMTGYATVQHLFTGDEPQRHGNTSPDTCPSGVFKASDGAFYINCGNNKIFHRLASQVLEMPELAADPVLADRNGRIARRDELFRILDEAFIRHPWAYWQQRMRAASIPCGEVRSVGEALRSAEARERKLVSRLEHPDLGWLPNISLPFRFSETPMEDPSPAPRIGEHSRDILTHVLGYEDDSASALLDSGVVYSSVEKARAG
MGSDKIHHHHHHMLSTGLYEDFPTLKMKINGKRIVYLDSAATTLKPKQVVKKLEEFYYNSYANVHRAVHTLAVRATTEFEETREEFAEFLGASPEEIIFTSGTTMAINLAVVSLLRSGILKEDDLVLVSLLEHHANFVPWLRLSKFHGYRIDFIRPSGRFGTLEMDDLLKHRDKNPKVVAITGLSNVTGQRIPVEELRNVFPNSIILLDGAQLIPHEPVKPKEIGVDFLAFSLHKMLGPTGVGVLYGKREVLEQMEPFLYGGEMIDRVSLEDVTFNELPYKFEAGTPNIADIVASREALRYLKETGFDSVHEKIEQLTQMALKEMMKIGGVEIYGPLDERQHGIVSFNVKGIHPHDVAHILDQEFGIAVRSGHHCAQPLMSILKEQSQIDFPNSTCRASFYIYNTEEDVKILVEGVKKVKEWFSR
MGSDKIHHHHHHMLSYYGRLSSEVYDIDKPIDHSFRDVEFYIDRLNLCRGHILEPATGTGRVLVPLLEKGFKVDGFDSSKDMLNICRDNCRKKGLNPKLFEAKMESFIQDTRYDAIIVPAGTFLLLHQRADSIRALQNFHKHLCTGGRLIIDILMQTDFSTGTVSTRTWVCSNGDLITLESKVVEVDYINQYTVSHNRYEKWREGVLIQTELERFPLRWYGLEEFKLILESTGFKDIVISSDYKFGQYPSNVKDVITFEAVAIN
MGSDKIHHHHHHMLTLLSYHQKVLDHFKHQTKTWDFFTASQNKDEQLNQYKTELLKNTYKFDPEKDTSIYEKVAKSKQVLGLDINVYVYQAQYSDELNASVGFVNNEAHIVFSGQIIQLLDDDELLTVIAHELSHIKLYTMQGGDPEVAARIITAISNNYDSESSYMETARLFRLYTEIFCDRGAYEVQGSTGPVITSLVKTATGLKQVNAESYIKQAEEIFSADQQLKAASISHPENFIRARAIHLWHEKKEAAEEEIIRMIEGVTDIDALDIFKQKELAACTRQFLQLYLKPNWFRSTLVVSQAKQYFVDFSWDDKIILEETFITRMEKAHESVKNYFSYVLLDFALLDSTLEEIPFGWAFQFAEDIDIKETFDAVVKKELNLSDKKLQQHKQKTLSAFYNVKEGDGEQIYEG
MGSDKIHHHHHHMLTRLELAKDWVRDAGNFLKENIAAPLEITEKTRYDDLVTNFDKEVQEQIVANILHHFPEDKILAEEDEEKIKFDSEIPHLWVLDPIDGTTNFIVQKDNFAVMLAYYEYGVGKFGLILDVMKDKLYWCDSHKAFCNQKELELKERPLAQSLLGVNSYMYRSNSGGLLDLSHQTLGVRIIGSAGISYGQLLEGKIIGYFSSLQPWDYAAGSIIAERIGYVTLTISGESPHFNCRERVFTAPSYLISEIQKYIKK
MGSDKIHHHHHHMLYDVAIIGGGPSGAAAAEILARAGHSTILIERNLANVKPCGGAIPLGLIEEFDIPDELVEKKLTRMSVRSPKGETIFMHMPNGYVGMVRRERFDRYLREKAQKAGAEVVEALVKKIERSVDRFTLQLFNKEGEALPPVEASYVIGADGANSKTADELGFPPNDLKVIAMQQRFHYCDELKPYEELVEIWFDGEVSPDFYGWIFPKTDHIAIGTGTEEHRNDIKQLQHRFVEKIGIAEKPYLNEAAKIPMKPRRSFTQERAILVGDAAGLVTPANGEGIFFAMRSGKLGAEAMIERIRNNTPLSSYEKKFRKLYSPIFFGLQVLQSVYYKSDRLRESFVAICRDKDVQGITFDSYLYKKMVPAPWSVQMKIMAKNIYHLAKGS
MGSDKIHHHHHHMMAVAHKGEAQFDFYWRQQGEWVEEPNQRRGGESGVQRLNDADGKLLYAKRQVGHIYRSLLHPFGRPTVLRELDALNSFEQLGVRVPRIVFCGAQRDAEHQWRALLVSEALDGFVELDTWHAEGARERYPQVVHERMLKDLADNLARMHLGHWQHGCLYGKHVFIKVIGEGEQARVEVALLDLEKCRRRISCQRAAGNDLRQLRRHSSLNDAEWRTLLYFYKMAFGSAVKGLE
MGSDKIHHHHHHMMFKQVQQDFMDYIRDPNQPLPKGIEPRRMKIYRDLFFNNLDGFVSSAFPVLKSLYASDDWQLLVQAFFVNHDCQSPIFMDIAAEFLQFLQTEYQTKESDPGFMLELAHYEWLELVVAVAQEDEQLMTLSQDEVKTAKMCLNSTARVAQYHFDVQHISVDYQPVEPTPQGQFFCVYRDNADEVAFLQLSPLSAQVLAYLEQSQQSTLLELCHWLAGLYPNMATEQLNQGAFGLLAQLADKGIVKTRA
MGSDKIHHHHHHMMISLYSAATGMSAQQFKLDTIANNLANVDTTGYKKVRAEFQDLLYQYVKNAGTPTAATSSLPTGLYVGHGVRTAATTRIFTLGNFEQTGNALDLAIAGDGFFQIQLQDGRIAYTRDGSFKMDSEGRIVTSNGLLLVPEITIPENAVSINVSPDGIVSAELQDGTIQELGTITLVRFVNPSGLKSIGDNLYIATPASGDPIEGVPGQDGFGAIKQGFLEKSNVDVVREMVDMITAQRAYEFNSRVIQTADEMLRTATNVKR
MGSDKIHHHHHHMMKLTALVDNTRLDSRPELAVERGLSFHVETMGSQILFDTGSSSTFCENAALMNISIQDVDLAVISHRHHDHCNGTTHFIERNSKAKIYLKDCEDKNYLFKAFGFKNDVGINKELLKNASERLIFVEHTTEILPNIFIITEISDKYEKPKGNRYLYTQSENGYKNDTFDHELLLVVKESDGLIVFTGCAHSGVLNMVETAIELFPNHRIKAVVGGFHLVGLPLLNSIGGTKQDIQAIGQALSHYPIDKLYTGHCTGMKAFGLLKEVLGDRLEHLPTGRSVLI

Source: the DeepSol protein solubility set
